Reference: patent US8632989B1, “Mutant insulin degrading enzyme and methods of use” (University of Kentucky Research Foundation, priority 2011, dated 2014)
Changes are numbered by the printed parent chain. In names and notes the source's numbering stands. Read-outs that look alike come from different tables or passages of the source.

B1: rIDE-V360S (protein)
chain: MNNPAIQRIEDHIVKSPEDKREYRGLELANGIKVLLISDPTTDKSSAALDVHIGSLSDPPNIPGLSHFCEHMLFLGTKKYPKENEYSQFLSEHAGSSNAFTSGEHTNYYFDVSHEHLEGALDRFAQFFLCPLFDASCKDREVNAVDSEHEKNVMNDAWRLFQLEKATGNPKHPFSKFGTGNKYTLETRPNQEGIDVREELLKFHSTYYSSNLMAICVLGRESLDDLTNLVVKLFSEVENKNVPLPEFPEHPFQEEHLKQLYKIVPIKDIRNLYVTFPIPDLQQYYKSNPGHYLGHLIGHEGPGSLLSELKSKGWVNTLSGGQKEGARGFMFFIINVDLTEEGLLHVEDIILHMFQYIQKLRAEGPQEWVFQECKDLNAVAFRFKDKERPRGYTSKIAGKLHYYPLNGVLTAEYLLEEFRPDLIDMVLDKLRPENVRVAIVSKSFEGKTDRTEQWYGTQYKQEAIPEDVIQKWQNADLNGKFKLPTKNEFIPTNFEILALEKDATPYPALIKDTAMSKLWFKQDDKFFLPKACLNFEFFSPFAYVDPLHCNMAYLYLELLKDSLNEYAYAAELAGLSYDLQNTIYGMYLSVKGYNDKQPILLKKITEKMATFEIDKKRFEIIKEAYMRSLNNFRAEQPHQHAMYYLRLLMTEVAWTKDELKEALDDVTLPRLKAFIPQLLSRLHIEALLHGNITKQAALGVMQMVEDTLIEHAHTKPLLPSQLVRYREVQLPDRGWFVYQRRNEVHNNCGIEIYYQTDMQSTSENMFLELFCQIISEPCFNTLRTKEQLGYIVFSGPRRANGIQGLRFIIQSEKPPHYLESRVEAFLITMEKAIEDMTEEAFQKHIQALAIRRLDKPKKLSAECAKYWGEIISQQYNYDRDNIEVAYLKTLSKDDIIKFYKEMLAVDAPRRHKVSVHVLAREMDSCPVVGEFPSQNDINLSEAPPLPQPEVIHNMTEFKRGLPLFPLVKPHINFMAAKL
B2: rIDE-I374S (protein)
chain: B1 chain with S319V, I333S
B3: IDE^R429S: Rat IDE residues 41-1019 bearing the mutation R429S; ATP binding site mutant (protein, listed as Rattus norvegicus)
chain: MRNGLVWLLHPALPSTLHSILGARPPPVKRLCGFPKQIYSTMNNPAIQRIEDHIVKSPEDKREYRGLELANGIKVLLISDPTTDKSSAALDVHIGSLSDPPNIPGLSHFCEHMLFLGTKKYPKENEYSQFLSEHAGSSNAFTSGEHTNYYFDVSHEHLEGALDRFAQFFLCPLFDASCKDREVNAVDSEHEKNVMNDAWRLFQLEKATGNPKHPFSKFGTGNKYTLETRPNQEGIDVREELLKFHSTYYSSNLMAICVLGRESLDDLTNLVVKLFSEVENKNVPLPEFPEHPFQEEHLKQLYKIVPIKDIRNLYVTFPIPDLQQYYKSNPGHYLGHLIGHEGPGSLLSELKSKGWVNTLVGGQKEGARGFMFFIINVDLTEEGLLHVEDIILHMFQYIQKLRAEGPQEWVFQECKDLNAVAFRFKDKESPRGYTSKIAGKLHYYPLNGVLTAEYLLEEFRPDLIDMVLDKLRPENVRVAIVSKSFEGKTDRTEQWYGTQYKQEAIPEDVIQKWQNADLNGKFKLPTKNEFIPTNFEILALEKDATPYPALIKDTAMSKLWFKQDDKFFLPKACLNFEFFSPFAYVDPLHCNMAYLYLELLKDSLNEYAYAAELAGLSYDLQNTIYGMYLSVKGYNDKQPILLKKITEKMATFEIDKKRFEIIKEAYMRSLNNFRAEQPHQHAMYYLRLLMTEVAWTKDELKEALDDVTLPRLKAFIPQLLSRLHIEALLHGNITKQAALGVMQMVEDTLIEHAHTKPLLPSQLVRYREVQLPDRGWFVYQRRNEVHNNCGIEIYYQTDMQSTSENMFLELFCQIISEPCFNTLRTKEQLGYIVFSGPRRANGIQGLRFIIQSEKPPHYLESRVEAFLITMEKAIEDMTEEAFQKHIQALAIRRLDKPKKLSAECAKYWGEIISQQYNYDRDNIEVAYLKTLSKDDIIKFYKEMLAVDAPRRHKVSVHVLAREMDSCPVVGEFPSQNDINLSEAPPLPQPEVIHNMTEFKRGLPLFPLVKPHINFMAAKL
modifications: wild-type Insulin Degrading Enzyme (IDE) from rat
B4: Y609F: Rat IDE distal site mutant Y609F (protein, UniProt P35559 1-1019, looked up, variant Y609F)
Insulin-degrading enzyme: B3 chain with S429R, Y609F
B5: V360S: Rat IDE distal site mutant V360S (protein, UniProt P35559 1-1019, looked up, variant V360S)
Insulin-degrading enzyme: B3 chain with V360S, S429R
B6: I374S: Rat IDE distal site mutant I374S (protein, UniProt P35559 1-1019, looked up, variant I374S)
Insulin-degrading enzyme: B3 chain with I374S, S429R

What was measured:
[1] = target: T1, Abz-GGFLRKHGQ-EDDnp
T1 chain: GGFLRKHGQ

[2] = target: bradykinin, P01042
bradykinin, P01042, sequence (P01042 whole entry, looked up): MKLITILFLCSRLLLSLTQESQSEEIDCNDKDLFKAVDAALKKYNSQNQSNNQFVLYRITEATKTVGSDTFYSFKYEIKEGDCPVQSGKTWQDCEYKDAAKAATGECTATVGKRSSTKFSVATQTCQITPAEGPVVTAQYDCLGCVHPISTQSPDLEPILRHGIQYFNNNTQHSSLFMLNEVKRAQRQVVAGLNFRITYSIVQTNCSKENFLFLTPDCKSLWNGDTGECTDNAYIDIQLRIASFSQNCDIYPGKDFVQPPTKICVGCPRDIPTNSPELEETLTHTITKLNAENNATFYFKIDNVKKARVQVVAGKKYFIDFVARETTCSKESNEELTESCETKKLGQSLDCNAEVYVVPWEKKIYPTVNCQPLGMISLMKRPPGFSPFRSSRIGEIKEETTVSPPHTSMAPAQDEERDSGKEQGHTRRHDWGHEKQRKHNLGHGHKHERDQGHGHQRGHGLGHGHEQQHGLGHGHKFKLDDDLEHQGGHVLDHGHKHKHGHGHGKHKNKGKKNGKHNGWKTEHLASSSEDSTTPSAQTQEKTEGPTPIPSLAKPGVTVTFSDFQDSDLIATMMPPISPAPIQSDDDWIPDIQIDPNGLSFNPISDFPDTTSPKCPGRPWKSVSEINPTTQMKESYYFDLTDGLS

[3] = system: Abz-GGFLRKHGQ-EDDnp; assay: Enzyme activity assay, kinetics of IDE and ATP binding site mutants with fluorogenic substrate; type: biochemical; conditions: Abz-GGFLRKHGQ-EDDnp as substrate
Experimental: Reactions were conducted in 50 mM Tris-HCl, pH 7.4.
(§1) IDE activity was determined by measuring the increase in fluorescence that occurs when the enzyme cleaves the internally quenched fluorogenic substrate Abz-[…]-EDDnp (SEQ ID NO:3) at the R—K bond (Song et al., Journal of Biologial Chemistry 276, 1152-1155 (2001)). The reaction was followed on a SpectraMax Gemini XS fluorescence plate reader using an excitation and emission wavelengths of 318 nm and 419 nm, respectively. Initial velocities were determined using SoftMax Pro 4.0 and kinetic constants calculated using GraphPad Prism 4.0. ATPase activity was measured by following Pi release with acid-molybdate as described by Harder et al. (Harder et al., Biochemical Journal 298 (Pt 2), 395-401 (1994)).

[4] = TNP-ATP fluorescence measurements, IDE and ATP binding site mutants; conditions: 1.5 μM enzyme, 10 μM TNP-ATP, λexc=403 nm
Experimental: Fluorescence emission spectra were recorded on a Perkin-Elmer LS 55 Luminescence spectrometer with 1.5 μM of IDE, IDE^R429S or IDE^K898A,K899A,S901A in 50 mM Tris-HCl, pH 7.4 with 10 μM TNP-ATP. Fluorescence spectra were recorded with a λexc=403 nm.
TNP-ATP [2′,3′-O-(2,4,6-Trinitrophenyl)adenosine-5′-triphosphate] fluorescence was monitored at excitation and emission wavelengths of 403 nm and 547 nm, respectively, using a Perkin-Elmer LS55 Luminescence Spectrometer at 20±0.1° C. TNP-ATP (Molecular Probes, Inc.) as supplied was diluted to 4 mM with 50 mM Tris-HCl, pH 7.4, and added to achieve the indicated concentrations.

[5] = system: Abz-GGFLRKHGQ-EDDnp; assay: Activation by ATP of Abz-[…]-EDDnp hydrolysis, IDE and ATP binding site mutants; type: biochemical; conditions: 10 μM Abz-GGFLRKHGQ-EDDnp as substrate
Experimental: Activity was determined in 50 mM Tris-HCl, pH 7.4 with 10 μM Abz-[…]-EDDnp (SEQ ID NO:3) as substrate at the indicated concentrations of ATP (panel A), PPPi (panel B) or, TNP-ATP (panel C). Each reaction contained 0.5 μg of enzyme.
as §1

[6] = system: Abz-GGFLRKHGQ-EDDnp; assay: Activation by ATP, wild type rIDE and distal site mutants; type: biochemical; conditions: 10 μM Abz-GGFLRKHGQ-EDDnp as substrate
Experimental: (§2) FIG. 17. Effects of distal site mutations. (A) Comparison of the kinetics of wild type IDE with the distal site mutants. Activity was measured with varying amounts of Abz-[…]-EDDnp (SEQ ID NO:3) substrate as indicated. Either hyperbolic (Michaelis-Menten equation) or sigmoidal curves (Hill equation) were fit to the data. (B) Effect of bradykinin on the activity of wild type IDE and the distal site mutants. (C) Activation of wild type IDE and distal site mutants by ATP. Relative activity is the fold activation above the level of the wild type enzyme alone.
(§3) The activity of IDE was measured by following the increase in fluorescence upon hydrolysis at the L-R bond of the fluorogenic peptide Abz-[…]-EDDnp (SEQ ID NO:3) on a SpectraMax Gemini XS fluorescence plate reader using an excitation wavelength of 318 nm and emission wavelength of 419 nm. Reactions were carried out in 200 μl volumes containing 50 mM Tris-HCl, pH 7.4, 1.92 μg of wild type rIDE, 4.6 μg of rIDE-V360S, 4.3 μg rIDE-I374S, or 1.63 μg of rIDE-Y609F. For measurements of activation by bradykinin, IDE activity was determined with 10 μM Abz-[…]-EDDnp (SEQ ID NO:3) as substrate in 50 mM Tris-HCl buffer, pH 7.4. The amount of protein was 0.5 μg for wild type rIDE and 5 μg for each of the IDE distal-site mutants. Data were analyzed using Softmax 4.0 (Molecular Devices) and kinetic parameters calculated with Prism (Graphpad Software). […] Under these assay conditions, both wild type and mutant rIDE are almost completely dimeric.
Fluorescence measurements of TNP-ATP binding were performed on a Perkin-Elmer LS55 Luminescence Spectrometer. Titrations were monitored at an excitation wavelength of 403 nm and emission wavelength of 547 nm. The temperature of the sample was maintained at 20±0.1° C. by circulating thermostatically controlled water through the cuvette holder. […] The fluorescence of TNP-ATP was subtracted from the total fluorescence of enzyme+TNP-ATP to yield specific fluorescence enhancement (ΔF).

[7] = system: Abz-GGFLRKHGQ-EDDnp; assay: Enzyme activity assay, kinetics of wild type rIDE and distal site mutants with fluorogenic substrate; type: biochemical; conditions: rat IDE, Abz-GGFLRKHGQ-EDDnp as substrate; for Vmax: 50 mM Tris-HCl, pH 7.4
Experimental: as §2, §3

[8] = Fluorescence measurements of TNP-ATP binding, wild type rIDE and distal site mutants; conditions: hyperbolic one site binding fit, 20 °C
Experimental: The fluorescence increase on binding of (2,4,6-trinitrophenyl)ATP (TNP-ATP) is plotted for the indicated IDE constructs as a function of ligand concentration. Data were fit to a hyperbolic one site binding mechanism.
Fluorescence emission spectra of 10 μM TNP-ATP in […] Tris-HCl, pH7.4, was measured in the presence of 1.5 μM of each wild type IDE and the indicated IDE distal mutants. Fluorescence spectra were recorded with a λexc=403 nm on a Perkin-Elmer LS55 Luminescence Spectrometer.
Fluorescence measurements of TNP-ATP binding were performed on a Perkin-Elmer LS55 Luminescence Spectrometer. Titrations were monitored at an excitation wavelength of 403 nm and emission wavelength of 547 nm. The temperature of the sample was maintained at 20±0.1° C. by circulating thermostatically controlled water through the cuvette holder. Assays were conducted in 200 μL reaction mixtures containing 50 mM Tris-HCl, pH, 7.4, 10 μM Abz-[…]-EDDnp (SEQ ID NO:3) as substrate, and 0.5 μg wild type rIDE, 2.3 μg rIDE-V3605, 2.0 μg rIDE-I3745 or 1.62 μg rIDEY609F and the indicated concentration of ATP. The fluorescence of TNP-ATP was subtracted from the total fluorescence of enzyme+TNP-ATP to yield specific fluorescence enhancement (ΔF).

Row | Molecule | Hill coefficient [1] | Km [1] [µM] | Vmax [1] [nmol/min/mg] | Heterotropic activation of Abz-GGFLRKHGQ-EDDnp hydrolysis [2] | ATP activation [6] | Hill coefficient [7] | Km [7] [µM] | Vmax [7] [nmol/min/mg] | Kd [8] [nM] | further results
1 | B1 | 1.07 | 8.61 | 2.01 | is also lost in all three mutants |  |  |  |  |  | 
2 | B2 | 1.12 | 8.5 | 3.45 | is also lost in all three mutants |  |  |  |  |  | 
3 | B3 |  |  |  |  |  |  |  |  |  | kcat relative to wild-type IDE [3]: essentially the same; Hill coefficient ([3]; rat IDE): 1.7 ± 0.2; Km ([3]; rat IDE): 21300 ± 2400 µM; kcat ([3]; rat IDE): 0.0783 ± 0.005 s⁻¹; Vmax ([3]; rat IDE, 50 mM Tris-HCl, pH 7.4): 42.3 ± 3.2 nmol/min/mg; fluorescence associated with TNP-ATP binding, relative to wild type IDE [4]: lower fluorescent yield; level of activation by ATP, of the wild type value [5]: about 15%
4 | B4 |  |  |  |  | not significant | 1.04 | 6.86 ± 1.18 | 2.6 ± 0.56 | 2000 ± 300 | Hill coefficient ([7]; listed as Tyr609Phe): 1.04 ± 0.14
5 | B5 |  |  |  |  | 8 fold | 1.07 | 8.61 ± 0.81 | 2.01 ± 0.08 | 3700 ± 800 | Hill coefficient ([7]; listed as Val360Ser): 1.07 ± 0.30
6 | B6 |  |  |  |  | not significant | 1.12 | 8.5 ± 1.74 | 3.45 ± 0.22 | 2100 ± 500 | Hill coefficient ([7]; listed as Ile374Ser): 1.12 ± 0.2
